# B1: DNA polymerase III subunit tau (Bacillus subtilis), P09122 (parent)
# chain: MSYQALYRVFRPQRFEDVVGQEHITKTLQNALLQKKFSHAYLFSGPRGTGKTSAAKIFAKAVNCEHAPVDEPCNECAACKGITNGSISDVIEIDAASNNGVDEIRDIRDKVKFAPSAVTYKVYIIDEVHMLSIGAFNALLKTLEEPPEHCIFILATTEPHKIPLTIISRCQRFDFKRITSQAIVGRMNKIVDAEQLQVEEGSLEIIASAADGGMRDALSLLDQAISFSGDILKVEDALLITGAVSQLYIGKLAKSLHDKNVSDALETLNELLQQGKDPAKLIEDMIFYFRDMLLYKTAPGLEGVLEKVKVDETFRELSEQIPAQALYEMIDILNKSHQEMKWTNHPRIFFEVAVVKICQTSHQSAADLPEVDMLMKKIQQLEQEVERLKTTGIKAAAESPKKEAPRVPKGGKSNYKAPVGRIHEILKEATRPDLDLLRNSWGKLLAHLKQQNKVSHAALLNDSEPVAAGSAAFVLKFKYEIHCKMVAEDNNGVRTNLEQILESMLGKRMDLIGVPEAQWGKIREEFLEDHQQENEGSNEPAEEDPLIAEAKKLVGADLIEIKD
# partner: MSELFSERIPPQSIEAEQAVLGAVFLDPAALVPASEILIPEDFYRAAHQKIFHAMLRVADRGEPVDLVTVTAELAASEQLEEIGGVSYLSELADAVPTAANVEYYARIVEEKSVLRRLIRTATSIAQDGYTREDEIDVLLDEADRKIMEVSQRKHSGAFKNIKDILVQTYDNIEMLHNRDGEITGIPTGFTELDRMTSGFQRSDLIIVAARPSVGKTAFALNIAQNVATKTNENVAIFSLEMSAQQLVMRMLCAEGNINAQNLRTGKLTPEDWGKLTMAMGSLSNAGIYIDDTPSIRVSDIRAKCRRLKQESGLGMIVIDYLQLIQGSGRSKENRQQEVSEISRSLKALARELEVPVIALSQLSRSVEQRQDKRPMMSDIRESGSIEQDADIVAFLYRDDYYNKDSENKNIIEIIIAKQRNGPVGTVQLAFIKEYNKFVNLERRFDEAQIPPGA
# Variants of: B1
# Settings: with dnab_geose dnaB
row,Variant,effect of a mutation on the interaction
1,F473L,decreasing interaction strength
2,C483S,decreasing interaction strength
3,G492R,decreasing interaction strength
4,D510S,decreasing interaction strength
5,W519R,decreasing interaction strength
6,A550V,decreasing interaction strength

# Source: IntAct's records for PubMed 19415803
